We go through 53 substances from US20210340217A1, “NOVEL PEPTIDES AND COMBINATION OF PEPTIDES FOR USE IN IMMUNOTHERAPY AGAINST OVARIAN CANCER AND OTHER CANCERS” (Immatics Biotechnologies GmbH, priority 2017, published 2021).

One experiment addresses HLA-B*44:02 (Homo sapiens, UniProt P01889, A223V/A65T/A93T/A95T/D201E/D98Y/E176V/E187L/E204Q/E69K/G107R/H137Y/K202T/L105A/L119I/N104T/N87E/Q56L/Q94N/R106L/R155S/R180D/S101N/S121R/S35A/S48T/T118I/V36M/W191S/Y140D/Y91S). Nature of the experiment: MHC binding assay (UV-ligand exchange, beta2m ELISA). As to conditions: peptide exchange yield. The source says:
(§1) Candidate peptides for T cell based therapies according to the present invention were further tested for their MHC binding capacity (affinity). The individual peptide-MHC complexes were produced by UV-ligand exchange, where a UV-sensitive peptide is cleaved upon UV-irradiation, and exchanged with the peptide of interest as analyzed. Only peptide candidates that can effectively bind and stabilize the peptide-receptive MHC molecules prevent dissociation of the MHC complexes. To determine the yield of the exchange reaction, an ELISA was performed based on the detection of the light chain (β2m) of stabilized MHC complexes. The assay was performed as generally described in Rodenko et al. (Rodenko et al., 2006).
(§2) 96 well MAXISorp plates (NUNC) were coated over night with 2 ug/ml streptavidin in PBS at room temperature, washed 4× and blocked for 1 h at 37° C. in 2% BSA containing blocking buffer. Refolded HLA-A*02:01/MLA-001 monomers served as standards, covering the range of 15-500 ng/ml. Peptide-MHC monomers of the UV-exchange reaction were diluted 100-fold in blocking buffer. Samples were incubated for 1 h at 37° C., washed four times, incubated with 2 ug/ml HRP conjugated anti-β2m for 1h at 37° C., washed again and detected with TMB solution that is stopped with […]. Absorption was measured at 450 nm. Candidate peptides that show a high exchange yield (preferably higher than 50%, most preferred higher than 75%) are generally preferred for a generation and production of antibodies or fragments thereof, and/or T cell receptors or fragments thereof, as they show sufficient avidity to the MHC molecules and prevent dissociation of the MHC complexes.

In another experiment the target is HLA-B*07:02 (Homo sapiens, UniProt P01889). The description is as above. As to conditions: peptide exchange yield.
Excerpt: as §1, §2

As to “416 (SEEETRVVF; listed as Homo sapiens) [compound 416]”, the Peptide exchange entry with HLA-B*44:02 is recorded as ““+++” (>50 = +++)”.
Regarding “209 (TEVSRTEL; listed as Homo sapiens) [compound 209]”, the Peptide exchange result with HLA-B*44:02 was ““++” (>20% = ++)”.
As to “194 (KEVDPTSHSY; listed as Homo sapiens) [compound 194]”, the Peptide exchange entry with HLA-B*44:02 is ““++” (>20% = ++)”.
Turning to “57 (QESDLRLFL; listed as Homo sapiens) [compound 57]”, the Peptide exchange result in the experiment with HLA-B*44:02 is ““+++” (>50 = +++)”.
As for “403 (EEAQWVRKY; listed as Homo sapiens) [compound 403]”, the Peptide exchange entry in the experiment with HLA-B*44:02 is ““++” (>20% = ++)”.
The same measure, in the same setting: under “178 (NELFRDGVNW; listed as Homo sapiens) [compound 178]” stands ““+++” (>50 = +++)”.
As for “438 (SEVDSPNVL; listed as Homo sapiens) [compound 438]”, in the experiment with HLA-B*44:02, the Peptide exchange entry is reported as ““+++” (>50 = +++)”.
As to “52 (AEFLLRIFL; listed as Homo sapiens) [compound 52]”, in the experiment with HLA-B*44:02, the Peptide exchange result is on record as ““++” (>20% = ++)”.
“344 (LPTQTTSSL; listed as Homo sapiens) [compound 344]”: the Peptide exchange entry with HLA-B*07:02 was ““+++” (>50 = +++)”.
For “139 (SPQSMSNTL; listed as Homo sapiens) [compound 139]”, the Peptide exchange entry in the experiment with HLA-B*07:02 is reported as ““+++” (>50 = +++)”.
As to “330 (FPFVTGSTEM; listed as Homo sapiens) [compound 330]”, the Peptide exchange result in the experiment with HLA-B*07:02 is recorded as ““++” (>20% = ++)”.
For the substance “362 (SPVPVTSLF; listed as Homo sapiens) [compound 362]”, in the experiment with HLA-B*07:02, the Peptide exchange entry is recorded as ““+++” (>50 = +++)”.
Same read-out and setting: the same measure for “147 (APRWFPQPTVV; listed as Homo sapiens) [compound 147]”: ““+++” (>50 = +++)”; for “336 (HPKTESATPAAY; listed as Homo sapiens) [compound 336]”: ““++” (>20% = ++)”.
Consider “386 (FPFNPLDF; listed as Homo sapiens) [compound 386]”, for which the Peptide exchange entry in the experiment with HLA-B*07:02 was ““++” (>20% = ++)”.
Take “132 (IPGPAQSTI; listed as Homo sapiens) [compound 132]”: the Peptide exchange result with HLA-B*07:02 is on record as ““++” (>20% = ++)”.
Turning to “327 (SPLPVTSLI; listed as Homo sapiens) [compound 327]”, the Peptide exchange entry with HLA-B*07:02 is recorded as ““+++” (>50 = +++)”.
Still for that read-out and setting: the same measure for “320 (FPMSPVTSV; listed as Homo sapiens) [compound 320]”: ““+++” (>50 = +++)”.
Same read-out and setting: the same measure for “135 (RVRSTISSL; listed as Homo sapiens) [compound 135]”: ““+++” (>50 = +++)”.
Regarding “304 (LPRPGAVL; listed as Homo sapiens) [compound 304]”, in the experiment with HLA-B*07:02, the Peptide exchange entry was ““+++” (>50 = +++)”.
In the case of “306 (APVIFSHSA; listed as Homo sapiens) [compound 306]”, the Peptide exchange result with HLA-B*07:02 is ““++” (>20% = ++)”.
Consider “389 (SPGAQRTFFQL; listed as Homo sapiens) [compound 389]”, for which the Peptide exchange entry with HLA-B*07:02 is ““+++” (>50 = +++)”.
Take “354 (SPLPVTSLL; listed as Homo sapiens) [compound 354]”: the Peptide exchange entry in the experiment with HLA-B*07:02 is recorded as ““+++” (>50 = +++)”.
With “119 (APLPRPGAVL; listed as Homo sapiens) [compound 119]”, the Peptide exchange entry in the experiment with HLA-B*07:02 is ““+++” (>50 = +++)”.
For “146 (IPRPEVQAL; listed as Homo sapiens) [compound 146]”, the Peptide exchange result in the experiment with HLA-B*07:02 is ““+++” (>50 = +++)”.
In the case of “124 (LPSDSHFKITF; listed as Homo sapiens) [compound 124]”, the Peptide exchange entry in the experiment with HLA-B*07:02 is ““+++” (>50 = +++)”.
On to “324 (VPYRVVGL; listed as Homo sapiens) [compound 324]”, for which, in the experiment with HLA-B*07:02, the Peptide exchange result is given as ““++” (>20% = ++)”.
Turning to “36 (APAAWLRSA; listed as Homo sapiens) [compound 36]”, in the experiment with HLA-B*07:02, the Peptide exchange result is ““++” (>20% = ++)”.
As to “372 (IPRNPPPTLL; listed as Homo sapiens) [compound 372]”, the Peptide exchange entry in the experiment with HLA-B*07:02 is ““+++” (>50 = +++)”.
Turning to “329 (FPAMTESGGMIL; listed as Homo sapiens) [compound 329]”, the Peptide exchange entry with HLA-B*07:02 is recorded as ““+++” (>50 = +++)”.
As to “128 (YPRTITPGM; listed as Homo sapiens) [compound 128]”, the Peptide exchange entry in the experiment with HLA-B*07:02 is ““+++” (>50 = +++)”.
Consider “33 (SPTFHLTL; listed as Homo sapiens) [compound 33]”, for which the Peptide exchange entry in the experiment with HLA-B*07:02 was ““+++” (>50 = +++)”.
In the case of “293 (VPDSGATATAY; listed as Homo sapiens) [compound 293]”, the Peptide exchange result with HLA-B*07:02 is listed as ““++” (>20% = ++)”.
With “340 (LPEISTRTM; listed as Homo sapiens) [compound 340]”, the Peptide exchange result with HLA-B*07:02 is reported as ““++” (>20% = ++)”.
Still for that read-out and setting: the same measure for “40 (KPGTSYRVTL; listed as Homo sapiens) [compound 40]”: ““+++” (>50 = +++)”; for “123 (KPSESIYSAL; listed as Homo sapiens) [compound 123]”: ““+++” (>50 = +++)”.
Regarding “392 (KPIESTLVA; listed as Homo sapiens) [compound 392]”, in the experiment with HLA-B*07:02, the Peptide exchange entry was ““+++” (>50 = +++)”.
On the same count and under the same terms, the same measure for “305 (TPWAESSTKF; listed as Homo sapiens) [compound 305]”: ““++” (>20% = ++)”; for “140 (SPRTEASSAVL; listed as Homo sapiens) [compound 140]”: ““+++” (>50 = +++)”; for “296 (YPLRGSSI; listed as Homo sapiens) [compound 296]”: ““++” (>20% = ++)”.
On to “346 (LPWDTSTTLF; listed as Homo sapiens) [compound 346]”, for which the Peptide exchange result in the experiment with HLA-B*07:02 is given as ““+++” (>50 = +++)”.
With “311 (RPLFYVVSL; listed as Homo sapiens) [compound 311]”, in the experiment with HLA-B*07:02, the Peptide exchange result is reported as ““++” (>20% = ++)”.
With “347 (MPLTTGSQGM; listed as Homo sapiens) [compound 347]”, in the experiment with HLA-B*07:02, the Peptide exchange result is on record as ““++” (>20% = ++)”.
On the same count and under the same terms, the same measure for “314 (VPDQPHPEI; listed as Homo sapiens) [compound 314]”: ““+++” (>50 = +++)”.
As for “343 (LPSVSGVKTTF; listed as Homo sapiens) [compound 343]”, in the experiment with HLA-B*07:02, the Peptide exchange result was ““++” (>20% = ++)”.
As to “349 (MPSLSEAMTSF; listed as Homo sapiens) [compound 349]”, the Peptide exchange entry with HLA-B*07:02 is ““+++” (>50 = +++)”.
Same read-out and setting: the same measure for “307 (LPYGPGSEAAAF; listed as Homo sapiens) [compound 307]”: ““+++” (>50 = +++)”.
Still for that read-out and setting: under “35 (FPDNQRPAL; listed as Homo sapiens) [compound 35]” stands ““+++” (>50 = +++)”; under “303 (LPMWKVTAF; listed as Homo sapiens) [compound 303]”, ““+++” (>50 = +++)”; under “385 (SPALHIGSV; listed as Homo sapiens) [compound 385]”, ““+++” (>50 = +++)”.
For “294 (YPLRGSSIF; listed as Homo sapiens) [compound 294]”, the Peptide exchange entry in the experiment with HLA-B*07:02 was ““+++” (>50 = +++)”.
Consider “335 (HPDPVGPGL; listed as Homo sapiens) [compound 335]”, for which, in the experiment with HLA-B*07:02, the Peptide exchange result is ““++” (>20% = ++)”.
In the case of “127 (APRAGSQVV; listed as Homo sapiens) [compound 127]”, in the experiment with HLA-B*07:02, the Peptide exchange entry is recorded as ““+++” (>50 = +++)”.
